Assay results as given in patent US20050048071A1 (RUSH UNIVERSITY MEDICAL CENTER, published 2005).

B1: CD19 peptide LLFFLLFLV (SEQ ID NO: 5) (peptide)
peptide: LLFFLLFLV
B2: CD20 peptide AISGMILSI (SEQ ID NO: 7) (peptide)
peptide: AISGMILSI
notes: Synthetic nonamer
B3: CD20 peptide SHFLKMESL (SEQ ID NO: 11) (peptide)
peptide: SHFLKMESL
notes: Synthetic nonamer
B4: CD20 peptide LKMESLNFI (SEQ ID NO: 10) (peptide)
peptide: LKMESLNFI
notes: Synthetic nonamer
B5: CD19 peptide KLMSPKLYV (SEQ ID NO: 4) (peptide)
peptide: KLMSPKLYV
notes: Synthetic nonamer
B6: CD20 peptide FIRAHTPYI (SEQ ID NO: 8) (peptide)
peptide: FIRAHTPYI
notes: Synthetic nonamer
B7: CD20 peptide SLFLGILSV (SEQ ID NO: 6) (peptide)
peptide: SLFLGILSV
notes: Synthetic nonamer
B8: CD19 peptide TLAYLIFCL (SEQ ID NO: 2) (peptide)
peptide: TLAYLIFCL
notes: Synthetic nonamer
B9: CD20 peptide SLNFIRAHT (SEQ ID NO: 9) (peptide)
peptide: SLNFIRAHT
notes: Synthetic nonamer
B10: CD19 peptide LLFLTPMEV (SEQ ID NO: 3) (peptide)
peptide: LLFLTPMEV
notes: Synthetic nonamer
B11: CD19 peptide RLLFFLLFL (SEQ ID NO: 1) (peptide)
peptide: RLLFFLLFL
notes: Synthetic nonamer

target: HLA-A2.1 MHC class I molecules on T2 cells (human); experiment: T2 cells pulsed with peptide, anti-HLA-A2.1 flow cytometry; Brefeldin A treatment: 0 hr

Row | binding score (HLA-A2.1 fluorescence on T2 cells) | Binder
1 | 200 | B1
2 | 220 | B2
3 | 216 | B3
4 | 245 | B4
5 | 683 | B5
6 | 232 | B6
7 | 672 | B7
8 | 530 | B8
9 | 212 | B9
10 | 770 | B10
11 | 167 | B11

target: HLA-A2.1 MHC class I molecules on T2 cells (human); experiment: T2 cells pulsed with peptide, anti-HLA-A2.1 flow cytometry; Brefeldin A treatment: 2 hr

Row | binding score (HLA-A2.1 fluorescence on T2 cells) | Binder
12 | 202 | B1
13 | 256 | B2
14 | 218 | B3
15 | 291 | B4
16 | 215 | B6
17 | 703 | B7
18 | 608 | B8
19 | 200 | B9
20 | 924 | B10
21 | 202 | B11

target: HLA-A2.1 MHC class I molecules on T2 cells (human); experiment: T2 cells pulsed with peptide, anti-HLA-A2.1 flow cytometry; Brefeldin A treatment: 4 hr

Row | binding score (HLA-A2.1 fluorescence on T2 cells) | Binder
22 | 163 | B1
23 | 165 | B2
24 | 199 | B3
25 | 227 | B4
26 | 796 | B5
27 | 192 | B6
28 | 762 | B7
29 | 513 | B8
30 | 180 | B9
31 | 880 | B10
32 | 174 | B11

target: HLA-A2.1 MHC class I molecules on T2 cells (human); experiment: T2 cells pulsed with peptide, anti-HLA-A2.1 flow cytometry; Brefeldin A treatment: 6 hr

Row | binding score (HLA-A2.1 fluorescence on T2 cells) | Binder
33 | 143 | B1
34 | 144 | B2
35 | 127 | B3
36 | 190 | B4
37 | 642 | B5
38 | 154 | B6
39 | 770 | B7
40 | 387 | B8
41 | 128 | B9
42 | 573 | B10
43 | 152 | B11

target: HLA-A2.1 MHC class I molecules on T2 cells (human); experiment: T2 cells pulsed with peptide, anti-HLA-A2.1 flow cytometry; Brefeldin A treatment: None

Row | binding score (HLA-A2.1 fluorescence on T2 cells) | Binder
44 | 164 | B1
45 | 162 | B2
46 | 172 | B3
47 | 215 | B4
48 | 167 | B6
49 | 637 | B7
50 | 363 | B8
51 | 172 | B9
52 | 556 | B10

target: HLA-A2.1 MHC class I molecules on T2 cells (human); experiment: T2 cells pulsed with peptide, anti-HLA-A2.1 flow cytometry; Brefeldin A treatment: Overnight

Row | binding score (HLA-A2.1 fluorescence on T2 cells) | Binder
53 | 200 | B1
54 | 232 | B2
55 | 277 | B3
56 | 225 | B4
57 | 540 | B5
58 | 250 | B6
59 | 410 | B7
60 | 312 | B8
61 | 195 | B9
62 | 453 | B10
63 | 248 | B11
